B1: (His)6-L* (purified recombinant L*DA) (natural protein)
chain: MDTQMCALFAQPLTLLPDLNICSWQTVNGSQRTFFVWTWTMTSSGLRTRAINLKQWNGLTYRSYAILSWNPRETPLHLTRVTPSPQVTKGSLLTTSIPINTKIQLICLPAVAMLATPPKTTDNCRTSWAALQMLLLLWHLSSWIKTQRRWRISLTE

Series [1] deals with T1, mouse RNase L (Mus musculus (mouse)) (UniProt Q05921).
T1 sequence: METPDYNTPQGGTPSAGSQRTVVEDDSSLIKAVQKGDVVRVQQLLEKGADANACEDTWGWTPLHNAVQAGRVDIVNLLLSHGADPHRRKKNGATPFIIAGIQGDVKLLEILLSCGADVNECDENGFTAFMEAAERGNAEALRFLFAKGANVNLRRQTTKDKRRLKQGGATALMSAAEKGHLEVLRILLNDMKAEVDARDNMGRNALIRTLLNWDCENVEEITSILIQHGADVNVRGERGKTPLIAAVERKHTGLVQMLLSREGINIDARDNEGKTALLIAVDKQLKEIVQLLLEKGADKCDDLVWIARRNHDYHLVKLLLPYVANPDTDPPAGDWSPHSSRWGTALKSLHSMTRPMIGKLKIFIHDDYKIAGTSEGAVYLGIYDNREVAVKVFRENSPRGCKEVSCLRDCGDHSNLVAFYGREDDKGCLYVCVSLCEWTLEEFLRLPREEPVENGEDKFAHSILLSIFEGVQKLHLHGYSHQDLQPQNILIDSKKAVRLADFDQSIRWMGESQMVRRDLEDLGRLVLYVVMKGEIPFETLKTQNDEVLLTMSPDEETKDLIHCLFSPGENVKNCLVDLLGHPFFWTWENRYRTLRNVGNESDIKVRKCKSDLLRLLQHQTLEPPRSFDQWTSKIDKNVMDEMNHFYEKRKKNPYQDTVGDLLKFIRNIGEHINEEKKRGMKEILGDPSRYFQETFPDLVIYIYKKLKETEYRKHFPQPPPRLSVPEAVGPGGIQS
The series can be described thus: SPR competition. To be noted: 2'-5' phosphodiester linkages; 5'-triphosphate; trimer p3A2'p5'A2'p5'A assumed (oligomer length used in SPR not stated); SPR on Biacore 3000; HBS-P SPR buffer (0.005% surfactant P20), 10 ul/min, 3 min association, 5 min dissociation, 25 C stated for GST-RNase L capture; 1:1 …. (In general: SPR reads the build-up and loss of mass on a sensor chip optically.)

Series [2] has as its target T2, purified recombinant GST-tagged murine RNase L (mouse, UniProt Q05921 1-735).
T2 chain: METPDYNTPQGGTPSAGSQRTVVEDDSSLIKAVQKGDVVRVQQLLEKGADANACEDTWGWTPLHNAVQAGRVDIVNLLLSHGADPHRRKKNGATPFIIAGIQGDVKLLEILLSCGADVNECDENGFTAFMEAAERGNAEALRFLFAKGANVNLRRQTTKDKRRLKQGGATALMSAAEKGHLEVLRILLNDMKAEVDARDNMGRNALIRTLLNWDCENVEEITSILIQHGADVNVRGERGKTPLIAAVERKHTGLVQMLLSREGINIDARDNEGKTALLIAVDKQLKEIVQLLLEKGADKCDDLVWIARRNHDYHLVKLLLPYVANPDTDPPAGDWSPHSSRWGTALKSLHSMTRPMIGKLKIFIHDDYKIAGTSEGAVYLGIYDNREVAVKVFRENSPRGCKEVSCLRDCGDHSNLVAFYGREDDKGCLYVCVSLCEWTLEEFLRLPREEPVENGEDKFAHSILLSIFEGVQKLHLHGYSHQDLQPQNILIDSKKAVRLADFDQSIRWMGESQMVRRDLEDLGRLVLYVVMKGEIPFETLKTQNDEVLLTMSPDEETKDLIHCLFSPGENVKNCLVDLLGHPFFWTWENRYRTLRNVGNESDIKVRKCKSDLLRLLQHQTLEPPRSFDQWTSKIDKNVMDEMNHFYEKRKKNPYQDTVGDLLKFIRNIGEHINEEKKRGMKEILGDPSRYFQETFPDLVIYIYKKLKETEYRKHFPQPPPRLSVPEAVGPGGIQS
The series can be described thus: SPR; immobilized mouse RNase L.

The target in series [3] is T2, purified recombinant GST-tagged murine …. The series can be described thus: SPR; immobilized mouse RNase L.
Series [4] has the same target. The series can be described thus: SPR; immobilized mouse RNase L.
Series [5] concerns the target B1. The series can be described thus: SPR; immobilized L*.
Series [6] has as its target B1. The series can be described thus: SPR; immobilized L*.
In series [7] the target is (His)6-L* (purified recombinant L*DA) (Theiler's murine encephalomyelitis virus, strain DA). Description: SPR; Biacore 3000; (His)6-L* immobilized on Ni-NTA chips, mouse or human RNase L injected; 10 μl/min, 3 min association, 5 min dissociation; 1:1 Langmuir model, global fitting.

Take AAA [2-5A (unlabeled)]: the IC50 in series [1] was 13.2 nM.
For the molecule B1, in series [2], the Ka turned out to be 2e+06 M⁻¹. The dissociation constant (Kd) in series [3] came out at 490 nM. The koff in series [4] turned out to be 0.0015 s⁻¹.

B2: purified recombinant mouse RNase L (enzyme)
chain: METPDYNTPQGGTPSAGSQRTVVEDDSSLIKAVQKGDVVRVQQLLEKGADANACEDTWGWTPLHNAVQAGRVDIVNLLLSHGADPHRRKKNGATPFIIAGIQGDVKLLEILLSCGADVNECDENGFTAFMEAAERGNAEALRFLFAKGANVNLRRQTTKDKRRLKQGGATALMSAAEKGHLEVLRILLNDMKAEVDARDNMGRNALIRTLLNWDCENVEEITSILIQHGADVNVRGERGKTPLIAAVERKHTGLVQMLLSREGINIDARDNEGKTALLIAVDKQLKEIVQLLLEKGADKCDDLVWIARRNHDYHLVKLLLPYVANPDTDPPAGDWSPHSSRWGTALKSLHSMTRPMIGKLKIFIHDDYKIAGTSEGAVYLGIYDNREVAVKVFRENSPRGCKEVSCLRDCGDHSNLVAFYGREDDKGCLYVCVSLCEWTLEEFLRLPREEPVENGEDKFAHSILLSIFEGVQKLHLHGYSHQDLQPQNILIDSKKAVRLADFDQSIRWMGESQMVRRDLEDLGRLVLYVVMKGEIPFETLKTQNDEVLLTMSPDEETKDLIHCLFSPGENVKNCLVDLLGHPFFWTWENRYRTLRNVGNESDIKVRKCKSDLLRLLQHQTLEPPRSFDQWTSKIDKNVMDEMNHFYEKRKKNPYQDTVGDLLKFIRNIGEHINEEKKRGMKEILGDPSRYFQETFPDLVIYIYKKLKETEYRKHFPQPPPRLSVPEAVGPGGIQS
In the case of B2, in series [5], the Ka turned out to be 760000 M⁻¹. Further, the koff in series [6] is 0.0027 s⁻¹. Further, in series [7], the Kd came to 1300 nM.

For orientation: IC50 means the point on the concentration scale where inhibition reaches its midpoint. Read a high IC50 as weaker potency. The term Kd denotes a measure of binding affinity in units of concentration. As a reminder, the koff is a measure of how fast the partners let go of each other.

The values above are taken from PMC5927464 (2018).
